{"source": "patent US20190276499A1", "about": "“Protein VII Fragments and Methods of Use Thereof for the Treatment of Inflammatory Disorders” (priority 2016, published 2019)", "type_in_all_cases": "cell-based", "key": {"HMGB1 [1]": {"biological_target": "T1, HMGB1 (Homo sapiens, UniProt P09429)", "T1 sequence (P09429 1-215)": "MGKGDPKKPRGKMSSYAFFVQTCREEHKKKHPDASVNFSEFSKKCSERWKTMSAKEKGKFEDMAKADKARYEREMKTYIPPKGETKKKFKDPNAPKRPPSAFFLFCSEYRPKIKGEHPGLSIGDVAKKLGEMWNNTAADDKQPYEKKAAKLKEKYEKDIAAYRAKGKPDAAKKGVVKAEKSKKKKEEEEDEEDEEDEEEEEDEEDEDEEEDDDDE", "assay": "Release assay of HMGB1 in THP-1 cells", "design": "endogenous in cells", "settings": "PMA-treated THP-1 cells, LPS plus nigericin", "experimental": "THP-1 cells were seeded at a density of 2×10^5 cells per well in a 24-well plate, and stimulated into macrophage-like cells by addition of 10 ng/mL PMA for 48 hours. Cells were washed in PBS and transduced with recombinant adenovirus vectors expressing only GFP or protein VII-GFP such that >90% of cells were GFP positive. At 48 hours post transduction, cells were washed and 200 μL of serum free RPMI was added. To stimulate the inflammasome, LPS (Sigma-Aldrich L2880) with a final concentration of 0.5 μg/mL was added to wells and incubated for 2 hours, then nigericin (Sigma-Aldrich N7143) was added with a final concentration of 10 μM for 1 hour. Supernatants were collected and proteins precipitated overnight at 4° C. with a final concentration of 20% trichloroacetic acid (Sigma), washed with acetone, dried, and resuspended in 1×sample buffer with reducing agent (Invitrogen). For ELISA analysis, supernatants were harvested directly and HMGB1 content was detected by the manufacturer's instructions (Chondrex 6010). Cells were also harvested by the addition of 1×sample buffer with reducing agent (Invitrogen) and boiled. Supernatants and lysates were analyzed together by western blot."}, "HMGB1 [2]": {"biological_target": "T1, HMGB1", "assay": "GFP immunoprecipitation from A549 cells transfected with protein VII-GFP constructs", "design": "endogenous in cells; host or cells: A549", "settings": "A549 cells transfected 24 hours", "experimental": "We further narrowed down this binding region through expression of protein VII peptides tagged with GFP. […] Cellular fractionation of A549 cells transfected for 24 hours with GFP and the different protein VII constructs is shown in FIG. 7C."}, "HMGB1 [3]": {"biological_target": "T1, HMGB1", "assay": "Salt fractionation of nuclei, western blot for HMGB1", "design": "endogenous in cells; host or cells: A549 (also 293 / 293-Cre in the salt fractionation)", "settings": "for Chromatin association of HMGB1 (retention in high salt fractions): A549 cells, doxycycline-induced expression", "experimental": "Salt fractionation of nuclei was adapted from established protocols (Zaret, K. (2005) Micrococcal nuclease analysis of chromatin structure. Curr. Protoc. Mol., Biol. Chapter 21, Unit 21.1; Teves et al. (2012) Methods Mol. Biol., 833:421-432). Briefly, 2-4×10^7 cells were collected and resuspended in 2 mL of ice-cold buffer I (0.32 M sucrose, 60 mM KCl, 15 mM NaCl, 5 mM MgCl2, 0.1 mM EGTA, 15 mM Tris, pH 7.5, 0.5 mM DTT, 0.1 mM PMSF and protease inhibitor cocktail from Roche). To dissolve the plasma membrane, 2 mL ice-cold buffer I supplemented with 0.1% IGEPAL were added and samples were incubated on ice for 10 minutes. The 4 mL of nuclei was layered on 8 mL of ice-cold buffer II (1.2 M sucrose, 60 mM KCl, 15 mM NaCl, 5 mM MgCl2, 0.1 mM EGTA, 15 mM Tris, pH 7.5, 0.5 mM DTT, 0.1 mM PMSF and protease inhibitor cocktail from Roche) and centrifuged for 20 minutes at 10,000×g and 4° C. The pelleted nuclei were resuspended in 400 μL buffer III (10 mM Tris pH 7.4, 2 mM MgCl2, 0.1 mM PMSF) supplemented with 5 mM CaCl2 and the DNA was digested to mononucleosomes by addition of 1 unit of MNase (Sigma-Aldrich, N3755). The reaction was incubated at 37° C. for 30 minutes and then stopped by addition of 25 μL of 0.1M EGTA. The samples were centrifuged for 10 minutes, 350×g, at 4° C., and supernatants were set aside for western blot analysis. The pellet was resuspended in 400 μL of buffer IV (70 mM NaCl, 10 mM Tris pH 7.4, 2 mM MgCl2, 2 mM EGTA, 0.1% Triton X-100, 0.1 mM PMSF) with 80 mM salt and rotated for 30 minutes at 4° C. The sample was centrifuged for 10 minutes at 350×g, 4° C., and the supernatant collected for western blot analysis. This step was repeated for salt concentrations in buffer IV of 150 mM, 300 mM and 600 mM. The final pellet was resuspended in 400 μL ddH2O and all samples were analyzed together by western blot. An aliquot of each supernatant was set aside for DNA purification using a PCR purification kit (Qiagen) and analyzed by agarose gel electrophoresis. […]"}}}
{"molecule": "protein VII: mature protein VII of human adenovirus type 5 (SEQ ID NO:1), expressed in cells, mostly with C-terminal HA tag (protein, C-terminal HA tag; Human adenovirus 5) AKKRSDQHPVRVRGHYRAPWGAHKRGRTGRTTVDDAIDAVVEEARNYTPTPPPVSTVDAAIQTVVRGARRYAKMKRRRRRVARRHRRRPGTAAQRAAAALLNRARRTGRRAAMRAARRLAAGIVTVPPRSRRRAAAAAAAAISAMTQGRRGNVYWVRDSVSGLRVPVRTRPPRN", "values": [{"measurement": "HMGB1 in supernatants", "setting": "HMGB1 [1]", "value": "reduced levels"}, {"measurement": "Pull-down of HMGB1 by GFP immunoprecipitation", "setting": "HMGB1 [2]", "value": "able to pull-down HMGB1"}, {"measurement": "Retention of HMGB1 in the 600 mM high-salt fraction", "setting": "HMGB1 [3]; A549 cells transfected 24 hours with GFP-tagged constructs", "value": "retention of HMGB1"}, {"measurement": "Chromatin association of HMGB1 (retention in high salt fractions)", "setting": "HMGB1 [3]", "value": "Increased chromatin association"}, {"measurement": "Chromatin association of HMGB1 (retention in high salt fractions)", "setting": "HMGB1 [3]; listed as Ad5 protein VII", "value": "retention in the high salt chromatin fractions"}]}
